Results: PMC11342882

Target: sACE2_(2).S01-IgG1 (human) (UniProt Q9BYF1)
Assay: BLI

Delta-RBD (from UniProt P0DTC2) (domain or fragment)
Kd: 1 nM
